Results from patent US20170044236A1 (GENERAL HOSPITAL, published 2017).

T1: αVβ3(N339/S) on HEK293T cells (human, UniProt P06756 31-1048; P05106 27-788)
T1 construct: also called αVβ3^N/S; active αVβ3(N339/S)
T1 chain 1: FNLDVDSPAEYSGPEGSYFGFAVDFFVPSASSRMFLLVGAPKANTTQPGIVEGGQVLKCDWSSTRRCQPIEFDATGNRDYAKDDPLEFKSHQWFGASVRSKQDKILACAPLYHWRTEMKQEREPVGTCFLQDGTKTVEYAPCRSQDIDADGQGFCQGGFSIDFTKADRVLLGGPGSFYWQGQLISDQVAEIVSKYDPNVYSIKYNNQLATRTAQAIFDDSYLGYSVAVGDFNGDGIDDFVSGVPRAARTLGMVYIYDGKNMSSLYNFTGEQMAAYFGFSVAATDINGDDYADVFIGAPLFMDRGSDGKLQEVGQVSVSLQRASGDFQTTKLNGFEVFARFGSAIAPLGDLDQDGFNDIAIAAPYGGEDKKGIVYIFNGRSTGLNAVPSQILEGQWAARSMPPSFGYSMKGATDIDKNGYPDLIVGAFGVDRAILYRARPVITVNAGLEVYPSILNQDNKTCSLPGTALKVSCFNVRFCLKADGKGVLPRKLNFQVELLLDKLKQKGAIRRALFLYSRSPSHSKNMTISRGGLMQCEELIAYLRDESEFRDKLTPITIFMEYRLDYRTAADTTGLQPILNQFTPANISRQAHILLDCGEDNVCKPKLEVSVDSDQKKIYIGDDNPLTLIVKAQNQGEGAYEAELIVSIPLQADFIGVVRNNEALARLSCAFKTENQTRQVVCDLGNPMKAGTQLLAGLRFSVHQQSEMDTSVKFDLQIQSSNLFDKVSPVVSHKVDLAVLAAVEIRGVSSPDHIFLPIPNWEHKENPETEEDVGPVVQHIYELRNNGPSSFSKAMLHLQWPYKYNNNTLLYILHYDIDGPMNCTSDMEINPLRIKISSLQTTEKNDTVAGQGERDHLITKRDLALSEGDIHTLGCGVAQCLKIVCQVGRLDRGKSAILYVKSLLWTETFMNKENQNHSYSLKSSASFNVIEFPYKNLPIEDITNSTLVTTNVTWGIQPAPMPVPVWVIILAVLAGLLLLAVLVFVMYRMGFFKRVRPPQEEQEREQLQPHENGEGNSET
T1 chain 2: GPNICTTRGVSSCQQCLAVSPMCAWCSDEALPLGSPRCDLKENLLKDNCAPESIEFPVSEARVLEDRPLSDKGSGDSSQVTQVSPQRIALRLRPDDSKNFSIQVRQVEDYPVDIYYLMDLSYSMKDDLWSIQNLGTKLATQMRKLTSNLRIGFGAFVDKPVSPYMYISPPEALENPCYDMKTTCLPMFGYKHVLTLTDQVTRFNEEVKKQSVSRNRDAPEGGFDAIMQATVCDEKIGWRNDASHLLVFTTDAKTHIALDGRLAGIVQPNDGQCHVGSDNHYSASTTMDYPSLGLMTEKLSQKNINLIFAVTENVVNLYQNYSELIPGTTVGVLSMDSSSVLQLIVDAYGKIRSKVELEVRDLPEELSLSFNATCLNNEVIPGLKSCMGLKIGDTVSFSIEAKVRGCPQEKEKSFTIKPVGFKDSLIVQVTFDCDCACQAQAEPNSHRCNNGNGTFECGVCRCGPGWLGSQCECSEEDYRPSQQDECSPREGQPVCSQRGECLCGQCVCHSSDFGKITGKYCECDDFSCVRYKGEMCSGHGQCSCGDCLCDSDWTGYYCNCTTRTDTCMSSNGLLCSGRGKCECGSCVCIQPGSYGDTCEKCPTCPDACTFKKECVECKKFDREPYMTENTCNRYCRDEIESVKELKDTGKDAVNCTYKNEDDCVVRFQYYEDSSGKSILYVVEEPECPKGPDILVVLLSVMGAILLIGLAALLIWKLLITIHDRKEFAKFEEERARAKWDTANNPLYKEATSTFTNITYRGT

T2: wild-type integrin αVβ3 on cells (K562-αVβ3, M21, HEK293T) (human, UniProt P06756 31-1048; P05106 27-788)
T2 construct: also called WT αVβ3; cellular αVβ3
T2 chain 1: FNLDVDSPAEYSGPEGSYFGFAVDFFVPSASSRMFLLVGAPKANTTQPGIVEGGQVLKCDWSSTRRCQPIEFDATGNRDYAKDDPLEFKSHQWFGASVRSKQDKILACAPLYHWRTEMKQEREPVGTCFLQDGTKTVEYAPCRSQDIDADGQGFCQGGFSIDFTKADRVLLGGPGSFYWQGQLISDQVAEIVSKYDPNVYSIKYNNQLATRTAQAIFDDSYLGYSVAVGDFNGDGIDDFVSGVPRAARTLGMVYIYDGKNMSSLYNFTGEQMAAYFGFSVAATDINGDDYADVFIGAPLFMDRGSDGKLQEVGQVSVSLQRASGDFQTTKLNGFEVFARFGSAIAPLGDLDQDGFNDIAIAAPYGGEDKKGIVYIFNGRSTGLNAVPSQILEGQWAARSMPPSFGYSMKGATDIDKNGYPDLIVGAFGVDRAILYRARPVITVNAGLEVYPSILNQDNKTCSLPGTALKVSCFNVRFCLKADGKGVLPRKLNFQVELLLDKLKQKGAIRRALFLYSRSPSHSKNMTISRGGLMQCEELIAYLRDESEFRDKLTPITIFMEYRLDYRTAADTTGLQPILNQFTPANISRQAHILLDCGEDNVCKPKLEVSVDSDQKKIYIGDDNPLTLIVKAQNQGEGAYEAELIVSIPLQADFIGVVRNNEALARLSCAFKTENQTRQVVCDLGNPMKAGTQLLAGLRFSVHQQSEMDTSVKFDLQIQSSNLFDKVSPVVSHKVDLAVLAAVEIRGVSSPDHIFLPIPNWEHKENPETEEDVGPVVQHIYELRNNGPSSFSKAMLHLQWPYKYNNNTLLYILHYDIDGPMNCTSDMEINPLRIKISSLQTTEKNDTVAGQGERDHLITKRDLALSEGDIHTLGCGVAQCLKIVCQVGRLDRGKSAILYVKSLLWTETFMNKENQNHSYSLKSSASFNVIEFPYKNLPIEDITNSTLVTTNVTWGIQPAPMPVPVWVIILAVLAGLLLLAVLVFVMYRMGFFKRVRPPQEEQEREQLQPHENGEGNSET
T2 chain 2: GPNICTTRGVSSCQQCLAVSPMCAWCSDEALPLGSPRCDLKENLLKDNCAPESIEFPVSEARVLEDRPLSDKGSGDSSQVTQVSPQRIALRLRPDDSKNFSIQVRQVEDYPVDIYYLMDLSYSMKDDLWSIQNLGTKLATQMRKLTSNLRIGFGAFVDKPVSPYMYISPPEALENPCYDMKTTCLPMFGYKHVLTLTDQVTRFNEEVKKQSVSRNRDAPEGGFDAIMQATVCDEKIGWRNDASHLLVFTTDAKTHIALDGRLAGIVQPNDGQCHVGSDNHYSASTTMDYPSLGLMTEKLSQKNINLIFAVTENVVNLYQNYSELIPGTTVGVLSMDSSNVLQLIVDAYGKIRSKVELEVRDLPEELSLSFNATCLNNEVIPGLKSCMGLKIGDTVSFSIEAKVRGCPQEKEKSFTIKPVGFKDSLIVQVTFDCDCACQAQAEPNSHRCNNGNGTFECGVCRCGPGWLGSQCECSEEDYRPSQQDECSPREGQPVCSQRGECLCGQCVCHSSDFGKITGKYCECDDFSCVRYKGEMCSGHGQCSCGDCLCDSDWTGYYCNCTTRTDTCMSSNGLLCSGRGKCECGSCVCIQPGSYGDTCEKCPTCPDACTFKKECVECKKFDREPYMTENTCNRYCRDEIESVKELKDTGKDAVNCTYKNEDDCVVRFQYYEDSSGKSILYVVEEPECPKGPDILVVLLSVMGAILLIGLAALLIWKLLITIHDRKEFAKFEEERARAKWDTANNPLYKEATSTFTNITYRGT


Legend:
[1] = molecular target: T1, αVβ3(N339/S) on HEK293T cells; experiment: flow cytometry, fluorescein-tagged hFN10-G on cells
[2] = molecular target: T2, wild-type integrin αVβ3 on cells …; experiment: flow cytometry, fluoresceinated fluid-phase FN10 on K562-αVβ3 cells
[3] = molecular target: T1, αVβ3(N339/S) on HEK293T cells; experiment: flow cytometry, fluoresceinated fluid-phase FN10 on transfected HEK293T cells, Ca2+/Mg2+

Binder	binding result [1]	fold increase of binding (Mn2+ over Ca2+/Mg2+) [2] [fold]	fold increase of binding (N339/S over wild-type αVβ3) [3] [fold]
hFN10-G (designed binder, Fluorescein-tagged in the assay; also called mhFN10) SDVPRDLEVVAATPTSLLISWDAPAVTVRYYRITYGETGGNSPVQEFTVPGSKSTATISGLKPGVDYTITVYAVTPGRGDWNEGSKPISINY	no binding	–	–
wild-type 10th type-III RGD-domain of human fibronectin (wtFN10) (ligand, Expressed in bacteria with an N-terminal His tag (S1417-T1509) and a thrombin cleavage site; also called wild-type FN10) not shown	–	10	6
